Key:
scavenger receptor CD36 [1] = assay: flow cytometry on CD36-transfected CHO cells, rAv17 at 5 µg/ml; detected with an anti-cystatin mAb and a FITC secondary antibody; baseline 20%
scavenger receptor CD36 [2] = assay: flow cytometry on CD36-transfected CHO cells, rAv17 at 2.5 µg/ml; detected with an anti-cystatin mAb and a FITC secondary antibody; baseline 20%

Q: How did the fluorescence positive cells (scavenger receptor CD36 [1]) turn out when “recombinant Acanthocheilonema viteae cystatin (rAv17)” was run?
A: 89%

Q: And the fluorescence positive cells (scavenger receptor CD36 [2])?
A: 71%

— patent EP2056867B1
